# The supplement of paper PMC10724198
# ± gives the standard deviation of the averaged measurements.
# Assays:
# Saccharomyces cerevisiae [1] = assay: protein stability index of tFT-peptide fusion (C-terminal peptide) (PSI (0-1 scale)); higher = more stable (slower turnover); conditions: genetic background: wild type; temperature: 30 C
# Saccharomyces cerevisiae [2] = assay: as above
# Description: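 MPS profiling in S. cerevisiae of the tFT-X12 degron library: putative degron peptides plus stable controls, 12 aa, fused to the C-terminus of a sfGFP-mCherry timer. Cells are FACS-sorted into 8 mCherry/sfGFP bins and deep-sequenced. PSI runs from 0 (unstable) to 1 (stable). Backgrounds are wild type, das1Δ and doa10Δ at 30 °C, and wild type, das1Δ, cdc34-1 and cdc53-1 at 37 °C; 2-3 technical replicates each.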
# [3] = genetic background: cdc34-1, temperature: 37 C
# [4] = genetic background: cdc53-1, temperature: 37 C
# [5] = genetic background: das1 deletion, temperature: 30 C
# [6] = genetic background: das1 deletion, temperature: 37 C
# [7] = genetic background: doa10 deletion, temperature: 30 C
# [8] = genetic background: wild type, temperature: 30 C
# [9] = genetic background: wild type, temperature: 37 C
# 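Note: PSI is a weighted mean of sequencing reads over stability bins, variants kept only with over 10 reads, mCherry proximal and sfGFP distal, peptide attached via GGGS linker.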
Sequence,protein stability index (Saccharomyces cerevisiae [1]),protein stability index (Saccharomyces cerevisiae [2]; [3]),protein stability index (Saccharomyces cerevisiae [2]; [4]),protein stability index (Saccharomyces cerevisiae [2]; [5]),protein stability index (Saccharomyces cerevisiae [2]; [6]),protein stability index (Saccharomyces cerevisiae [2]; [7]),protein stability index (Saccharomyces cerevisiae [2]; [8]),protein stability index (Saccharomyces cerevisiae [2]; [9])
CGSFWVNVLCAV,0.402 ± 0.013,0.402 ± 0.01,0.422 ± 0.018,0.334 ± 0.035,0.497 ± 0.01,0.2657 ± 0.0011,0.299 ± 0.034,0.444 ± 0.0067
CILYLSWIIFRA,0.146 ± 0.026,0.161 ± 0.037,0.192 ± 0.011,0.198 ± 0.041,0.343 ± 0.0091,0.213 ± 0.034,0.174 ± 0.028,0.334 ± 0.068
CLLDVVMVVERG,0.365 ± 0.012,0.384 ± 0.055,0.432 ± 0.0095,0.347 ± 0.032,0.4016 ± 0.0028,0.364 ± 0.035,0.347 ± 0.016,0.392 ± 0.0043
CPMFVKFFFCLY,0.405 ± 0.024,0.448 ± 0.027,0.462 ± 0.011,0.465 ± 0.036,0.508 ± 0.019,0.479 ± 0.013,0.41 ± 0.021,0.481 ± 0.0055
CRGLSWRMITCL,0.225 ± 0.012,0.493 ± 0.035,0.59 ± 0.049,0.484 ± 0.016,0.6459 ± 0.00088,0.125 ± 0.011,0.14 ± 0.015,0.176 ± 0.02
CRLRYSILWFRL,0.152 ± 0.017,0.104 ± 0.024,0.09746 ± 0.00035,0.245 ± 0.033,0.309 ± 0.032,0.201 ± 0.016,0.124 ± 0.017,0.155 ± 0.006
CRRQLKVLKSMS,0.242 ± 0.039,0.581 ± 0.072,0.697 ± 0.025,0.653 ± 0.023,0.6892 ± 0.0061,0.148 ± 0.021,0.151 ± 0.03,0.31 ± 0.013
CSFHFSLFFLRV,0.334 ± 0.037,0.3793 ± 0.0022,0.426 ± 0.048,0.356 ± 0.027,0.4589 ± 0.0031,0.485 ± 0.042,0.332 ± 0.014,0.422 ± 0.0073
CSRVVGLFFLVV,0.432 ± 0.033,0.5355 ± 0.0037,0.62 ± 0.019,0.427 ± 0.04,0.649 ± 0.042,0.371 ± 0.0081,0.413 ± 0.033,0.604 ± 0.016
CVCLWCFLVWAR,0.384 ± 0.016,0.307 ± 0.018,0.391 ± 0.029,0.259 ± 0.025,0.4581 ± 0.0023,0.259 ± 0.013,0.246 ± 0.027,0.436 ± 0.017
CVCPFCVWVSCL,0.433 ± 0.081,0.598 ± 0.066,0.744 ± 0.054,0.51 ± 0.027,0.752 ± 0.0091,0.242 ± 0.0047,0.263 ± 0.032,0.4205 ± 0.0029
CVSFFRCLFLIV,0.168 ± 0.0043,0.217 ± 0.0061,0.231 ± 0.019,0.302 ± 0.028,0.3805 ± 0.00051,0.193 ± 0.0083,0.144 ± 0.013,0.194 ± 0.017
CWYVCSFWPYVV,0.174 ± 0.013,0.366 ± 0.061,0.6476 ± 0.0021,0.548 ± 0.022,0.69 ± 0.0077,0.0885 ± 0.0085,0.089 ± 0.027,0.0762 ± 0.016
DAGSSYRFFRFI,0.425 ± 0.022,0.693 ± 0.071,0.755 ± 0.011,0.661 ± 0.011,0.739 ± 0.0078,0.315 ± 0.0095,0.344 ± 0.01,0.578 ± 0.0081
DFFTSFSLFFFL,0.0727 ± 0.039,0.674 ± 0.028,0.7814 ± 0.0048,0.635 ± 0.036,0.736 ± 0.008,0.638 ± 0.051,0.636 ± 0.018,0.701 ± 0.008
DLIGSVRRLFCV,0.27 ± 0.042,0.651 ± 0.042,0.725 ± 0.013,0.621 ± 0.014,0.728 ± 0.017,0.18 ± 0.0082,0.214 ± 0.0082,0.303 ± 0.0047
DLLKAILKIKSL,0.171 ± 0.054,0.579 ± 0.095,0.704 ± 0.05,0.6279 ± 0.0037,0.7476 ± 0.0011,0.104 ± 0.0099,0.0962 ± 0.017,0.162 ± 0.049
DLQTVGLTRFIV,0.236 ± 0.071,0.62 ± 0.031,0.7362 ± 0.0061,0.621 ± 0.022,0.714 ± 0.011,0.149 ± 0.015,0.193 ± 0.0044,0.353 ± 0.031
DLRRYRTLIPCK,0.447 ± 0.034,0.38 ± 0.014,0.425 ± 0.023,0.288 ± 0.034,0.4805 ± 0.0034,0.2277 ± 0.00047,0.275 ± 0.048,0.481 ± 0.038
DPKQVRIQSSWL,0.7428 ± 0.0039,0.699 ± 0.016,0.721 ± 0.046,0.644 ± 0.042,0.723 ± 0.013,0.6273 ± 0.0026,0.663 ± 0.018,0.6863 ± 0.0034
DVLLVVVLGRFL,0.44 ± 0.066,0.403 ± 0.058,0.563 ± 0.063,0.344 ± 0.03,0.5481 ± 0.0036,0.322 ± 0.043,0.312 ± 0.027,0.535 ± 0.0089
DVPLFLPLPVSV,0.392 ± 0.0097,0.357 ± 0.035,0.357 ± 0.01,0.278 ± 0.032,0.452 ± 0.015,0.243 ± 0.0078,0.297 ± 0.021,0.3903 ± 0.0012
ELDVRPMVFLVA,0.422 ± 0.007,0.4192 ± 0.0018,0.4521 ± 0.0023,0.346 ± 0.038,0.4943 ± 0.0028,0.295 ± 0.0069,0.337 ± 0.027,0.457 ± 0.011
ESRDRRVGIANW,0.7252 ± 0.0026,0.69 ± 0.036,0.743 ± 0.005,0.647 ± 0.0092,0.77 ± 0.0086,0.648 ± 0.014,0.647 ± 0.011,0.713 ± 0.014
FACLTPFCLCLT,0.431 ± 0.025,0.527 ± 0.016,0.564 ± 0.015,0.422 ± 0.015,0.5742 ± 0.0044,0.325 ± 0.005,0.349 ± 0.013,0.51106 ± 0.0004
FALFCFVIFMSR,0.363 ± 0.06,0.22 ± 0.05,0.373 ± 0.1,0.245 ± 0.081,0.398 ± 0.034,0.277 ± 0.028,0.227 ± 0.068,0.381 ± 0.063
FAVTRVHLACWG,0.4649 ± 0.0013,0.453 ± 0.049,0.464 ± 0.0047,0.368 ± 0.033,0.493 ± 0.0079,0.3297 ± 0.0031,0.369 ± 0.03,0.466 ± 0.022
FCCFFVHMSFFL,0.483 ± 0.12,0.26 ± 0.0087,0.424 ± 0.024,0.298 ± 0.026,0.45 ± 0.0054,0.2646 ± 0.00099,0.282 ± 0.012,0.427 ± 0.025
FCFLLLVSFFFV,0.31 ± 0.028,0.234 ± 0.0069,0.407 ± 0.21,0.252 ± 0.029,0.388 ± 0.0052,0.211 ± 0.011,0.219 ± 0.034,0.33 ± 0.014
FCICRFLFIFLG,0.336 ± 0.049,0.44 ± 0.018,0.463 ± 0.012,0.358 ± 0.033,0.4917 ± 0.0036,0.3325 ± 0.0029,0.294 ± 0.029,0.411 ± 0.0063
